Reference: patent publication US20230310634A1 (IMMUNEXT, published 2023)

T1: hIX50 (human VISTA ECD) (human, UniProt Q9H7M9 33-194, biotinylated in the pH ELISA (sites not given); not biotinylated when coated on the plate)
T1 construct: also called soluble VISTA; biotinylated hIX50
T1 sequence: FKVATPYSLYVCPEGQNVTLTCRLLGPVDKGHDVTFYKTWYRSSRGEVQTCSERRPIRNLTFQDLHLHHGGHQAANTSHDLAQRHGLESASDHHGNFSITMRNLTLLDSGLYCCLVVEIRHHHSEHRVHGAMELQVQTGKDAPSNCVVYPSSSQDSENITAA

T2: human VISTA (human, UniProt Q9H7M9 33-194, limits assumed)
T2 sequence: T1 sequence

B1: INX200 (antibody, V domains shown)
VH: QVQLVQSGAEVKKPGASVKVSCKASGYTFANYLIGWVRQAPGQRLEWMGDIYPGGGFISYNEKFKGRVTITRDTSASTAYMELSSLRSEDTAVYYCARRFDYGGYFFDYWGQGTLVTVSS
VL: DIVMTQSPLSLPVTPGEPASISCRSSQSIVHSNGNIYLEWYLQKPGQSPQLLIYKVSNRFSGVPDRFSGSGSGTDFTLKISRVEAEDVGVYYCFQGSHVPWTFGQGTKLEIK
modifications: Alexa Fluor 488 label in the flow-cytometry results (p-1139); unlabelled in the ELISAs
B2: INX200A (other)
VH: B1 VH
VL: B1 VL
modifications: Linker/payload A (esterase sensitive linker with dexamethasone) on the reduced interchain disulfide cysteines, DAR about 8; these cysteines lie in the constant regions, which are not given here.
B3: VSTB92 (antibody, V domains shown)
VH: B1 VH
VL: B1 VL
B4: VSTB56 (antibody, V domains shown)
VH: QVQLVQSGAEVKKPGASVKVSCKASGYTFTSYWLHWVRQAPGQGLEWMGYIIPNTLHTDYNQKFKDRVTMTRDTSTSTVYMELSSLRSEDTAVYYCARLDGDYDYALDYWGQGTLVTVSS
VL: DIVMTQTPLSLSVTPGQPASISCRASESVEYYGTSFMQWYLQKPGQPPQLLIYTASNVESGVPDRFSGSGSGTDFTLKISRVEAEDVGVYYCQQSRKVPYTFGQGTKLEIK
B5: VSTB103 (antibody, V domains shown)
VH: EVQLVQSGAEVKKPGESLKISCKGSGYSFTSYWIGWVRQMPGKGLEWMGIIYPGDSDTRYSPSFQGQVTISADKSISTAYLQWSSLKASDTAMYYCARDDALYGGYYLDYWGQGTLVTVSS
VL: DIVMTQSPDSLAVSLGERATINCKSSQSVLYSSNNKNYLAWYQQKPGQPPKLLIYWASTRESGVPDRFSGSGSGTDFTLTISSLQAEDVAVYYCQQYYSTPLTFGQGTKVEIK
B6: VSTB66 (antibody, V domains shown)
VH: QVQLVQSGAEVKKPGASVKVSCKASGYPFTGYFMHWVRQAPGQGLEWMGRINPYNGGTVYNQNFNDRVTMTRDTSTSTVYMELSSLRSEDTAVYYCARWTFDGLFMDYWGQGTTVTVSS
VL: DVVMTQSPLSLPVTLGQPASISCRASENVDKYGISFMNWFQQRPGQSPRRLIYATSNQGSGVPDRFSGSGSGTDFTLKISRVEAEDVGVYYCQQSKEDPYTFGQGTKLEIK

Legend:
hIX50 (human VISTA ECD) [1] = molecular target: T1, hIX50 (human VISTA ECD); assay: ELISA: hIX50 coated at 1 ug/mL, antibody titrated, mouse anti-human kappa-HRP/TMB, OD450
hIX50 (human VISTA ECD) [2] = molecular target: T1, hIX50 (human VISTA ECD); assay: ELISA: INX200 coated at 1 ug/mL, biotinylated hIX50 titrated at pH 7.5, streptavidin-HRP/TMB; the concentration is that of hIX50
hIX50 (human VISTA ECD) [3] = molecular target: T1, hIX50 (human VISTA ECD); assay: ELISA: hIX50 coated at 1 ug/mL, conjugate titrated, mouse anti-human kappa-HRP/TMB, OD450
human VISTA = molecular target: T2, human VISTA; assay: SPR on a ProteOn instrument; format of antibody and antigen not stated

| Binder | Kd (human VISTA) [nM] | also measured |
| --- | --- | --- |
| B1 | – | EC50 (read off the curve) (hIX50 (human VISTA ECD) [1]): ~8 ng/mL; EC50 (read off the curve) (hIX50 (human VISTA ECD) [2]): ~0.7 ng/mL |
| B2 | – | EC50 (read off the curve) (hIX50 (human VISTA ECD) [3]): ~10 ng/mL |
| B3 | 0.09 | – |
| B4 | 0.02 | – |
| B5 | 0.64 | – |
| B6 | 0.08 | – |
